Reference: the Human Domainome abundance scans (Beltran et al. 2025)
± gives the uncertainty stated by the source.

B1: Arginine-glutamic acid dipeptide repeats protein, residues 502 to 543; numbered along this chain, Q9P2R6 (parent)
chain: LKGYACRHCFTTTSKDWHHGGRENILLCTDCRIHFKKYGELP

Variants of: B1
Assay: abundance fitness (aPCA) (normalised: wild type 0, dead -1); higher = more abundant; growth selection in yeast, the domain comes from the species named
Settings: Homo sapiens
Variant L41I has an abundance fitness of -0.46 ± 0.092. Variant L41N has an abundance fitness of -0.366 ± 0.055. With L41P the abundance fitness was -0.253 ± 0.041. For L41D, the abundance fitness was -0.245 ± 0.072. In the case of G20Q, the abundance fitness is reported as -0.179 ± 0.059. For G20E, the abundance fitness was -0.066 ± 0.036. With G20M the abundance fitness was -0.205 ± 0.042. G20T gave an abundance fitness of -0.292 ± 0.14. G20W showed an abundance fitness of -0.141 ± 0.051. G20P gave an abundance fitness of -0.375 ± 0.072. Variant G20K has an abundance fitness of -0.379 ± 0.06. Work on G20R yielded an abundance fitness of -0.45 ± 0.038. For G20D, the abundance fitness was 0.097 ± 0.067. Variant K15Y has an abundance fitness of -0.229 ± 0.09. With K15N the abundance fitness was -0.324 ± 0.073. In the case of K15E, the abundance fitness is reported as 0.007 ± 0.035. Variant K15D has an abundance fitness of -0.099 ± 0.1. K15C showed an abundance fitness of -0.313 ± 0.045. In the case of K15R, the abundance fitness is reported as -0.053 ± 0.037. K15I showed an abundance fitness of -0.222 ± 0.081. In the case of W17K, the abundance fitness is reported as -0.274 ± 0.057. Work on W17Q yielded an abundance fitness of -0.213 ± 0.053. For W17D, the abundance fitness was -0.197 ± 0.075. Work on W17S yielded an abundance fitness of -0.198 ± 0.051. W17R showed an abundance fitness of -0.276 ± 0.033. Work on W17M yielded an abundance fitness of -0.195 ± 0.038. Work on W17P yielded an abundance fitness of -0.149 ± 0.053. Work on W17N yielded an abundance fitness of -0.276 ± 0.084. Work on K2T yielded an abundance fitness of -0.367 ± 0.43. Work on K2R yielded an abundance fitness of -0.153 ± 0.034. For K2Y, the abundance fitness was -0.477 ± 0.08. In the case of K2L, the abundance fitness is reported as -0.196 ± 0.049. With K2Q the abundance fitness was -0.107 ± 0.041. For K2N, the abundance fitness was -0.046 ± 0.048. For K2I, the abundance fitness was -0.241 ± 0.094. For K36Q, the abundance fitness was 0.123 ± 0.075. For K36L, the abundance fitness was -0.068 ± 0.042. In the case of K36W, the abundance fitness is reported as -0.147 ± 0.052. Variant K36M has an abundance fitness of -0.095 ± 0.051. For K36V, the abundance fitness was -0.038 ± 0.048. For K36T, the abundance fitness was 0.009 ± 0.055. For I25E, the abundance fitness was -0.048 ± 0.036. In the case of I25N, the abundance fitness is reported as -0.298 ± 0.061. Work on I25Q yielded an abundance fitness of -0.099 ± 0.047. I25V showed an abundance fitness of -0.015 ± 0.038. For I25T, the abundance fitness was -0.04 ± 0.083. I25W gave an abundance fitness of -0.073 ± 0.034. Variant G21V has an abundance fitness of -0.23 ± 0.037. Work on G21P yielded an abundance fitness of -0.24 ± 0.035. G21N showed an abundance fitness of -0.515 ± 0.14. Variant G21W has an abundance fitness of -0.493 ± 0.055. G21Y gave an abundance fitness of -0.534 ± 0.26. With G21A the abundance fitness was -0.142 ± 0.034. In the case of G21R, the abundance fitness is reported as -0.369 ± 0.038. With G21S the abundance fitness was -0.056 ± 0.041. In the case of G39E, the abundance fitness is reported as -0.078 ± 0.04. Work on G39W yielded an abundance fitness of -0.301 ± 0.038. In the case of G39Q, the abundance fitness is reported as -0.082 ± 0.046. Work on G39T yielded an abundance fitness of -0.291 ± 0.05. Work on G39D yielded an abundance fitness of 0.053 ± 0.071. Variant G39P has an abundance fitness of -0.478 ± 0.061. G39R gave an abundance fitness of -0.118 ± 0.03. T12A showed an abundance fitness of -0.234 ± 0.038. T12K gave an abundance fitness of -0.135 ± 0.048. Work on T12S yielded an abundance fitness of -0.205 ± 0.044. For T12W, the abundance fitness was -0.669 ± 0.058. With T12F the abundance fitness was -0.314 ± 0.32. T12Q gave an abundance fitness of -0.159 ± 0.049. Work on T12M yielded an abundance fitness of -0.241 ± 0.052. Work on T12P yielded an abundance fitness of -0.317 ± 0.043. T12E gave an abundance fitness of -0.175 ± 0.051. E23V gave an abundance fitness of -0.338 ± 0.046. E23M gave an abundance fitness of -0.187 ± 0.051. With E23L the abundance fitness was -0.225 ± 0.035. With E23N the abundance fitness was -0.099 ± 0.061. E23I gave an abundance fitness of -0.322 ± 0.058. E23G gave an abundance fitness of -0.113 ± 0.038. In the case of E23Q, the abundance fitness is reported as -0.038 ± 0.043. Variant L27D has an abundance fitness of -0.541 ± 0.081. Work on L27G yielded an abundance fitness of -0.494 ± 0.039. In the case of L27M, the abundance fitness is reported as -0.209 ± 0.044. For L27C, the abundance fitness was -0.217 ± 0.086. Work on L27H yielded an abundance fitness of -0.086 ± 0.15. L27Y showed an abundance fitness of -0.301 ± 0.099. Variant H19K has an abundance fitness of -0.047 ± 0.061. Variant H19I has an abundance fitness of -0.045 ± 0.054. H19S showed an abundance fitness of -0.026 ± 0.035. Work on H19E yielded an abundance fitness of 0.02 ± 0.04. H19T gave an abundance fitness of 0.095 ± 0.042. H19Y gave an abundance fitness of -0.246 ± 0.1. In the case of H19P, the abundance fitness is reported as -0.046 ± 0.043. Variant H19W has an abundance fitness of -0.204 ± 0.044. For P42V, the abundance fitness was -0.456 ± 0.09. Work on P42A yielded an abundance fitness of -0.367 ± 0.048. P42R gave an abundance fitness of -0.654 ± 0.1. In the case of D16S, the abundance fitness is reported as -0.263 ± 0.049. With D16K the abundance fitness was -0.154 ± 0.049. D16Y gave an abundance fitness of -0.555 ± 0.079. D16V gave an abundance fitness of -0.412 ± 0.036. Work on D16P yielded an abundance fitness of -0.701 ± 0.08. Variant L26M has an abundance fitness of 0.023 ± 0.076. L26D showed an abundance fitness of -0.244 ± 0.057. Work on L26E yielded an abundance fitness of -0.167 ± 0.054. L26T gave an abundance fitness of -0.05 ± 0.062. With L26S the abundance fitness was -0.36 ± 0.046. With F10Q the abundance fitness was 0.03 ± 0.044. For F10L, the abundance fitness was -0.068 ± 0.035. Variant F10C has an abundance fitness of -0.036 ± 0.051. With F10T the abundance fitness was -0.099 ± 0.045. Work on F10M yielded an abundance fitness of -0.083 ± 0.048. F10V gave an abundance fitness of -0.331 ± 0.035. Work on F10D yielded an abundance fitness of -0.08 ± 0.039. F10A gave an abundance fitness of 0.054 ± 0.032. In the case of F10R, the abundance fitness is reported as -0.014 ± 0.032. Work on F10I yielded an abundance fitness of -0.352 ± 0.085. F10S showed an abundance fitness of 0.015 ± 0.048. In the case of F10Y, the abundance fitness is reported as -0.101 ± 0.063. Work on C31E yielded an abundance fitness of -0.742 ± 0.05. C31V gave an abundance fitness of -1.08 ± 0.079. Variant C31H has an abundance fitness of -0.733 ± 0.091. C31A showed an abundance fitness of -0.981 ± 0.057. Work on N24Y yielded an abundance fitness of -0.249 ± 0.067. In the case of N24F, the abundance fitness is reported as -0.242 ± 0.062. In the case of N24T, the abundance fitness is reported as -0.239 ± 0.046. In the case of N24H, the abundance fitness is reported as -0.094 ± 0.067. Variant N24C has an abundance fitness of -0.349 ± 0.086. For T29I, the abundance fitness was -0.094 ± 0.13. In the case of T29C, the abundance fitness is reported as -0.096 ± 0.054. With T29E the abundance fitness was -0.105 ± 0.043. In the case of T29K, the abundance fitness is reported as -0.145 ± 0.045. In the case of T29L, the abundance fitness is reported as -0.089 ± 0.039. T29R showed an abundance fitness of -0.125 ± 0.033. T29Q gave an abundance fitness of -0.106 ± 0.042. T29N showed an abundance fitness of -0.07 ± 0.27. For I33R, the abundance fitness was 0.026 ± 0.031. I33H showed an abundance fitness of 0.017 ± 0.085. Variant I33P has an abundance fitness of -0.465 ± 0.057. For I33F, the abundance fitness was -0.079 ± 0.11. Work on I33A yielded an abundance fitness of 0.079 ± 0.036. In the case of I33E, the abundance fitness is reported as 0.081 ± 0.04. In the case of I33T, the abundance fitness is reported as 0.042 ± 0.053. Work on I33C yielded an abundance fitness of 0.103 ± 0.047. I33K showed an abundance fitness of -0.011 ± 0.04. L1I gave an abundance fitness of 0.149 ± 0.1. Variant L1S has an abundance fitness of -0.003 ± 0.037. Variant L1Q has an abundance fitness of -0.245 ± 0.16. Work on L1F yielded an abundance fitness of 0.014 ± 0.049. Variant L1A has an abundance fitness of 0.158 ± 0.23. L1V showed an abundance fitness of 0.054 ± 0.047. S14I gave an abundance fitness of -0.454 ± 0.22. S14C gave an abundance fitness of -0.315 ± 0.068. For S14K, the abundance fitness was -0.066 ± 0.12. S14V gave an abundance fitness of -0.476 ± 0.047. Work on S14G yielded an abundance fitness of -0.291 ± 0.035. In the case of S14A, the abundance fitness is reported as -0.228 ± 0.036. S14Y gave an abundance fitness of -0.473 ± 0.09. Work on S14F yielded an abundance fitness of -0.516 ± 0.19. K37D gave an abundance fitness of -0.013 ± 0.049. For K37Y, the abundance fitness was -0.159 ± 0.12. Work on K37N yielded an abundance fitness of -0.09 ± 0.068. K37P gave an abundance fitness of -0.278 ± 0.13. Work on K37H yielded an abundance fitness of -0.182 ± 0.38. K37S gave an abundance fitness of -0.052 ± 0.051. For K37W, the abundance fitness was -0.135 ± 0.044. With Y38I the abundance fitness was -0.298 ± 0.1. Y38Q showed an abundance fitness of -0.062 ± 0.11. In the case of Y38E, the abundance fitness is reported as 0.018 ± 0.041.
